Experimental findings from US20150086555A1 (THERACLONE SCIENCES, published 2015) are described below.

In experiment [1] the target is recombinant soluble homotrimeric HA, A/Anhui/1/05 H5N1 (Influenza A virus A/Anhui/1/2005(H5N1)). Kind of experiment: microarray, transfection SN IgG, trimeric HA.
Experiment [2] has as its target recombinant soluble homotrimeric HA, A/Netherlands/219/03 H7N7 (Influenza A virus …). Briefly: microarray, transfection SN IgG, trimeric HA.
For experiment [3], the target named is recombinant soluble homotrimeric HA, A/duck/Yangzhou/02/05 H8N4 (Influenza A virus …). Briefly: microarray, transfection SN IgG, trimeric HA.
Experiment [4] deals with recombinant soluble homotrimeric HA, A/Solomon Islands/3/06 H1N1 (Influenza A virus A/Solomon …). Briefly: microarray, transfection SN IgG, trimeric HA.
Experiment [5] addresses recombinant soluble homotrimeric HA, A/California/4/09 H1N1 (Influenza A virus …). Kind of experiment: microarray, transfection SN IgG, trimeric HA.
Experiment [6] addresses recombinant soluble homotrimeric HA, A/chicken/Vietnam/NCVD-016/08 H5N1 (Influenza A virus …). Briefly: microarray, transfection SN IgG, trimeric HA.
The target in experiment [7] is recombinant soluble homotrimeric HA, A/South Carolina/1/18 H1N1 (Influenza A virus A/South Carolina/1/18 …). Kind of experiment: microarray, transfection SN IgG, trimeric HA.
For experiment [8], the target named is recombinant soluble homotrimeric HA, A/Indonesia/5/05 H5N1 (Influenza A virus …). Briefly: microarray, transfection SN IgG, trimeric HA.
Experiment [9] deals with recombinant soluble homotrimeric HA, A/Japan/305/57 H2N2 (Influenza A virus A/Japan/305/1957(H2N2)). Kind of experiment: microarray, transfection SN IgG, trimeric HA.
Experiment [10] has as its target recombinant soluble homotrimeric HA, A/Hong Kong/156/97 H5N1 (Influenza A virus A/Hong Kong/156/97 …). Kind of experiment: microarray, transfection SN IgG, trimeric HA.
Experiment [11] has as its target recombinant soluble homotrimeric HA, A/Egypt/3300-NAMRU3/08 H5N1 (Influenza A virus …). Kind of experiment: microarray, transfection SN IgG, trimeric HA.
The target of experiment [12] is recombinant soluble homotrimeric HA, A/Wisconsin/67/05 H3N2 (Influenza A virus …). Briefly: microarray, transfection SN IgG, trimeric HA.
Experiment [13] has as its target recombinant soluble homotrimeric HA, A/Vietnam/1203/04 H5N1 (Influenza A virus …). Briefly: microarray, transfection SN IgG, trimeric HA.
The target in experiment [14] is recombinant soluble homotrimeric HA, A/swine/Ontario/01911-2/99 H4N6 (Influenza A virus …). Kind of experiment: microarray, transfection SN IgG, trimeric HA.
Experiment [15] concerns the target recombinant soluble homotrimeric HA, A/northern shoveler/California/HKWF115/07 H6N4 (Influenza A virus A/northern …). Kind of experiment: microarray, transfection SN IgG, trimeric HA.
Experiment [16] deals with hemagglutinin on live influenza A virus, A/California/4/09 H1N1 (Influenza A virus …). Briefly: cell-based or functional assay.
Experiment [17] concerns the target hemagglutinin on whole influenza A virions, A/Wisconsin/67/05 H3N2 (Influenza A virus …). Briefly: cell-based or functional assay.
Experiment [18] concerns the target hemagglutinin on whole influenza A virions, A/Solomon Islands/3/06 H1N1 (Influenza A virus A/Solomon …). Kind of experiment: cell-based or functional assay.

B1: TCN-560 (5084_P10) (antibody, V domains shown)
VH: EVQLVESGGGLVQPGGSLRLSCAASGFIFRNYWMSWVRQAPGKGLEWVANIKQDGREKYYVDSLRGRVNISRDNAENSLYLHMNSLRVEDTAVYFCARARMVVVTGDGFDVWGHGTMVTVSS
VL: DIQMTQSPSSLSASVGDRVTITCRASQNIKRYFNWYQQKPGKAPKLLIYAASNLENGVPSRFSGSGSGTDFTLTISSLQPEDFATYYCQQSFSKSWTFGQGTNVDIK
With B1, the “Trimeric HA Binding: RLU” value in experiment [1] was 18600 RLU; in [2] it was 32100 RLU; in experiment [3], 27900 RLU; in experiment [4], 22400 RLU; in experiment [5], 31100 RLU; in [6], 18200 RLU. Moreover, the “Trimeric HA Binding: RLU” value was 30500 RLU in experiment [7]; 17000 RLU in experiment [8]; 25900 RLU in experiment [9]; 29300 RLU in experiment [10]; 18700 RLU in [11]; 55400 RLU in experiment [12]. The “Trimeric HA Binding: RLU” value came out at 19500 RLU in experiment [13], 16800 RLU in experiment [14] and 35900 RLU in experiment [15]. The “% Neutralization” value was 0% in experiment [16], 4% in experiment [17] and 0% in [18].

B2: TCN-556 (5089_K12) (antibody, V domains shown)
VH: QVQLVQSGAEVKKPGASVKVSCKASGYTFIGYDMHWVRQAPGQGLEWMGWINAKRGGTNYAQKFQGRVTMTRDTSISTAYMELNSLRSDDTAVYYCARGVGSRTTIFGVLNPEFDYWGQGTLVTVSS
VL: QSALTQPPSASGSPGQSVTISCTGSSSDVGGYDYVSWYQQHPGKAPKLLIYEVTKRPSGVPDRFSGSKSGNTASLTVSGLQAEDEADYYCSSYAGNYNHVFGPGTKVTVL
On to B2, for which the “Trimeric HA Binding: RLU” value in [1] was 13800 RLU; in experiment [2], 43600 RLU; in experiment [3], 22400 RLU; in experiment [4] it was 23400 RLU; in [5], 20900 RLU; in experiment [6], 22700 RLU. For the same molecule, the “Trimeric HA Binding: RLU” value in experiment [7] was found to be 32700 RLU; in experiment [8], 15200 RLU; in [9] it was 22800 RLU; in [10], 24600 RLU; in [11] it was 16600 RLU; in experiment [12], 44700 RLU. Besides, the “Trimeric HA Binding: RLU” value in experiment [13] turned out to be 17400 RLU; in experiment [14] it was 19300 RLU; in experiment [15], 34800 RLU. Moreover, the “% Neutralization” value in experiment [16] is 0%; in experiment [17], 15%; in experiment [18] it was 0%.
